Measured values taken from patent US20250188180A1 (BIOINTRON BIOLOGICAL, published 2025).

B1: ANb24-Alpaca1-4M-2SP-226 (Fc fusion)
chain: QLQLVESGGGLVQPGGTLRLSCAASGVTLEYYSIGWFRQSPGKEREGVSCISGGGVQRYADSAEGRFAISRDNAKNMVYLQMNNLEPEDTAVYYCARARLLMRGCAPMDNYWGQGTQVTVSS
notes: also called ANb24-A1-4M-2SP-226; ANb24-Alpacal-4M-2SP-226; not shown: Fc joined to the VHH by overlap PCR
B2: ANb24-Alpaca1-4M-2SP-317 (Fc fusion)
chain: QLQLVESGGDLVQPGGSLRLSCTASGHTLEYYAIGWFRQAPGKEREGVSCIIGSGGSTRYFDSVLGRFTISRDNAKNTVFLQMNSLKPEDTAVYYCAKVRLLSRLCVPSSDFDSWGQGTQVTVSS
notes: also called ANb24-A1-4M-2SP-317; ANb24-Alpacal-4M-2SP-317; not shown: Fc joined to the VHH by overlap PCR
B3: ANb24-Alpaca1-4M-2SP-149 (Fc fusion)
chain: EVQLVESGGGLVQPGGSLRLSCTASGSTLDIYAIGWFRQAPGKEREGVSCITGSGSSTRYAHSVTGRFTISRDNAKNTVFLQMNSLKPEDTAVYYCAKARLLSRLCVPSPDFESWGQGTQVTVSS
notes: also called ANb24-A1-4M-2SP-149; ANb24-Alpacal-4M-2SP-149; not shown: Fc joined to the VHH by overlap PCR
B4: ANb24-Alpaca1-4M-2SP-273 (Fc fusion)
chain: EVQLVESGGGLVQPGGSLRLSCAASGSTLDYYAIGWFRQAPGKEREGVSCISGSGGSTRYADSVTGRFTISKDSAKNTVYLEMNSLKPEDTAVYYCARARLLSRLCVPSADFDSWGQGTQVTVSS
notes: also called ANb24-A1-4M-2SP-273; ANb24-Alpacal-4M-2SP-273; not shown: Fc joined to the VHH by overlap PCR
B5: ANb24-Alpaca1-4M-2SP-180 (Fc fusion)
chain: QPQFVESGGGLVQPGGSLRLSCTASGSTLDIYAIGWFRQAPGKEREGVSCITGSGSSTRYADSVTGRFTISRDNAKNTVFLQMNSLKPDDTAVYYCAKARLLSMLCVPSPDFESWGQGTQVTVSS
notes: also called ANb24-A1-4M-2SP-180; ANb24-Abpacal-4M-2SP-180; not shown: Fc joined to the VHH by overlap PCR
B6: ANb24-Alpaca1-4M-2SP-332 (Fc fusion)
chain: QVQLVESGGGLVQPGGSLRLSCAASGSTLASYAIGWFRQAPGKEREGISCISGSGGSTRAADSVQGRFTISRDNAKNTVSLQMNSLKPEDTAIYYCAKVRLLSRGCVPSPDFDSWGQGTQVTVSS
notes: also called ANb24-A1-4M-2SP-332; ANb24-Alpacal-4M-2SP-332; not shown: Fc joined to the VHH by overlap PCR
B7: ANb24-Alpaca1-4M-2SP-175 (Fc fusion)
chain: QPHFVESGGGLVQPGGSLRLSCVASGFTFEYVPIGWFRQAPGKEREGVSCITPTGITRNADSVKGRFTISRDNAKNTVYLQLNSLKPEDTAVYYCAKARLLSTSCVQTSDARGQGTQVTVSS
notes: also called ANb24-A1-4M-2SP-175; ANb24-Alpacal-4M-2SP-175; not shown: Fc joined to the VHH by overlap PCR
B8: ANb24-Alpaca1-4M-2SP-335 (Fc fusion)
chain: QPQFVESGGGLVQPGGTLRLSCAASGFTFEYYTIGWFRQTPGKEREGVSCITAAGVPRNADSAKGRFTISRDNAKNMVYLQMNNLKPEDTAVYYCAQARLLSTSCAPMNDYWGQGTQVTVSS
notes: also called ANb24-A1-4M-2SP-335; ANb24-Alpacal-4M-2SP-335; not shown: Fc joined to the VHH by overlap PCR

molecular target: CD40 antigen on cells (cell-based binding assay) (UniProt P25942); assay: cell-based binding assay on CD40 cells
Sequence (P25942 21-277 limits assumed): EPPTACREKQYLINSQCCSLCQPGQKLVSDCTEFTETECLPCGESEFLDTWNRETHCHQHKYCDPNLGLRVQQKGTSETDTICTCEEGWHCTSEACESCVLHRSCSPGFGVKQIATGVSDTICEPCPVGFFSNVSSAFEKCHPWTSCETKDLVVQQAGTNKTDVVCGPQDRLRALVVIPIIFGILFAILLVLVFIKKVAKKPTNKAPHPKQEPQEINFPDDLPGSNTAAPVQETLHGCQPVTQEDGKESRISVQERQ

Molecule anti-CD40/APX005M (control antibody) has a X Mean of 10700.

molecular target: T1, CD40 antigen on cells (cell-based binding assay) (UniProt P25942 21-277, limits assumed); assay: cell-based binding assay, 293F culture supernatant
T1 construct: whole, on cells; the cells are not described
T1 sequence (P25942 21-277 limits assumed): as above

Going from B1 to B2, the “X Mean” value falls from 10700 to 8970.

Compared with B3, B4 is lower in “X Mean” value: 11500 for the first, 4420 for the second.

Compared with B5, B6 is lower in “X Mean” value: 10800 for the first, 4080 for the second.

First: B7
Second: B8
The “X Mean” value of the first is higher: 10500 for the first, 8960 for the second.
